According to patent US20140287471A1, “VARIANT CBH I POLYPEPTIDES WITH REDUCED PRODUCT INHIBITION” (BP CORPORATION NORTN AMERICA INC., priority 2011, published 2014):
Where two headings read alike, the source gives them in different places.

Assay: 4-MUL cellobiose tolerance/inhibition assay, dose-response IC50 (Example 2)
Assay type: biochemical
Procedure: CBH I activity on was measured using the 4-MUL assay using gluconolactone to inhibit any BG activity. The fluorogenic 4-MUL substrate (SIGMA) was prepared at 100 mM concentration in DMSO. Assays were run in black 96-well-flat-bottomed plates (Costar) and 4-MU fluorescence was read on a BioTek H4 plate reader (ex/em 365/450 nm). Assay plates were filled with buffer (final concentrations of 100 mM MES, pH 6, 25 mM gluconolactone, with or without cellobiose; cellobiose concentrations are listed with appropriate data sets), to which enzyme mixture was added (10-30 μl, 5 μg/mL final) and then assays were initiated by addition of 4-MUL (0.5 mM final concentration in 100 μl total volume). Enzyme mixtures were either CBH I variants from harvested supernatants or standards. Standards included: a negative control, consisting of harvested supernatant from the CBH I knock-out strain; a positive control, consisting of wild-type CBH I from harvested supernatants; and, a commercial CBH I standard (E-CBHI from Megazymes). Activity standards were run by serial dilution of commercial CBH I from 40 to 0.02 μg/mL and 4-MU (SIGMA, prepared at 20 mM in DMSO) (in dilution increments of 2-fold; all dilutions were made using harvested supernatant from the knock-out control). Kinetic rates were monitored over the first 15 mins following 4-MUL addition; initial rates were calculated based on data in the linear range. After 1 hr, a final endpoint read was taken, both before and after reaction quenching (100 μL of 200 mM Sodium Carbonate, pH 10.0). Activity was calculated for kinetic and endpoint reads; background resulting from the CBH I knock-out supernatant remained negligible. 4MU standard curves and HPLC quantification values were used to calculate specific activity.
Tolerance/inhibition values represent activity ratios and/or percent activity remaining/percent activity decreased in the presence versus the absence of cellobiose. Tolerant variants show less inhibition in the presence of cellobiose as compared to wild type, where an activity ratio of 1 (with vs. without a given concentration of cellobiose) is equivalent to 0% inhibition by cellobiose, or 100% tolerance. The effect of cellobiose on CBH I variant performance was monitored by dose-response in the 4MUL assay. Dose-response curves were generated by assaying variant activity in the presence of 6-8 different cellobiose concentrations ranging up to 100 mM cellobiose. CBH I samples were diluted to 5 μg/mL final concentration or were used directly in the case of protein quantification levels below 5 μg/mL. Half maximal inhibitory concentration (IC50) values were determined by plotting 4MUL activity versus cellobiose concentration and fitting with a four parameter dose-response fitting algorithm, with zero activity (or 100% inhibition) constrained to background activity (as established by CBH I knockout values) and with automatic outlier elimination (on GraphPad Prism 5).
Harvested supernatants from active variant isolates were evaluated for cellobiose tolerance at 1 mM cellobiose in the 4-MUL activity assay. Table 8 lists the tolerance of variants at 1 mM. […] Additional cellobiose concentrations at 0.25, 5, 10, 50, and 100 mM were tested leading to full dose-response curves for which half maximal inhibitory concentration (IC50) values were generated (Table 8). The IC50 values support that the variant library has decreased product inhibition, or increased tolerance to cellobiose, when compared to the wild-type enzyme (WT IC50=0.03 mM; see first entry, Table 8).
In one example, the cellobiose tolerance of the library was explored in more detail by generating dose-response curves and determining half maximal inhibitory concentration (IC50) values, the point at which the enzyme is 50% inhibited.

[1] = Secondary screening, CBH I levels normalized to 5 μg/mL, cellobiose range 0.00085-100 mM, read-out: IC50
[2] = secondary screening, CBH I levels normalized to 5 μg/mL, cellobiose range 0.0001-100 mM, read-out: Average IC50
[3] = serine variants, unit not given in the legend, read-out: IC50 values (representative IC50 curves, FIG. 9)

Row | Molecule | IC50 [1] [µM] | IC50 (averaged IC50 values from Tables 8-11, read-out: measured IC50 of cellobiose (merged values)) [µM] | IC50 [2] [µM] | IC50 [3] [µM]
1 | 268N: CBH I variant with site 268 mutated to asparagine (protein, UniProt P62694 18-513, looked up, variant R268N) Exoglucanase 1: QSACTLQSETHPPLTWQKCSSGGTCTQQTGSVVIDANWRWTHATNSSTNCYDGNTWSSTLCPDNETCAKNCCLDGAAYASTYGVTTSGNSLSIGFVTQSAQKNVGARLYLMASDTTYQEFTLLGNEFSFDVDVSQLPCGLNGALYFVSMDADGGVSKYPTNTAGAKYGTGYCDSQCPRDLKFINGQANVEGWEPSSNNANTGIGGHGSCCSEMDIWEANSISEALTPHPCTTVGQEICEGDGCGGTYSDNNYGGTCDPDGCDWNPYRLGNTSFYGPGSSFTLDTTKKLTVVTQFETSGAINRYYVQNGVTFQQPNAELGSYSGNELNDDYCTAEEAEFGGSSFSDKGGLTQFKKATSGGMVLVMSLWDDYYANMLWLDSTYPTNETSSTPGAVRGSCSTSSGVPAQVESQSPNAKVTFSNIKFGPIGSTGNPSGGNPPGGNRGTTTTRRPATTTGSSPGPTQSHYGQCGGIGYSGPTVCASGTTCQVLNPYYSQCL | 482 | 490 | 405 | 
2 | R268Y (protein, UniProt P62694 18-513, looked up, variant R268Y) Exoglucanase 1: QSACTLQSETHPPLTWQKCSSGGTCTQQTGSVVIDANWRWTHATNSSTNCYDGNTWSSTLCPDNETCAKNCCLDGAAYASTYGVTTSGNSLSIGFVTQSAQKNVGARLYLMASDTTYQEFTLLGNEFSFDVDVSQLPCGLNGALYFVSMDADGGVSKYPTNTAGAKYGTGYCDSQCPRDLKFINGQANVEGWEPSSNNANTGIGGHGSCCSEMDIWEANSISEALTPHPCTTVGQEICEGDGCGGTYSDNYYGGTCDPDGCDWNPYRLGNTSFYGPGSSFTLDTTKKLTVVTQFETSGAINRYYVQNGVTFQQPNAELGSYSGNELNDDYCTAEEAEFGGSSFSDKGGLTQFKKATSGGMVLVMSLWDDYYANMLWLDSTYPTNETSSTPGAVRGSCSTSSGVPAQVESQSPNAKVTFSNIKFGPIGSTGNPSGGNPPGGNRGTTTTRRPATTTGSSPGPTQSHYGQCGGIGYSGPTVCASGTTCQVLNPYYSQCL | 434 |  | 344 | 
3 | R268D (protein, UniProt P62694 18-513, looked up, variant R268D) Exoglucanase 1: QSACTLQSETHPPLTWQKCSSGGTCTQQTGSVVIDANWRWTHATNSSTNCYDGNTWSSTLCPDNETCAKNCCLDGAAYASTYGVTTSGNSLSIGFVTQSAQKNVGARLYLMASDTTYQEFTLLGNEFSFDVDVSQLPCGLNGALYFVSMDADGGVSKYPTNTAGAKYGTGYCDSQCPRDLKFINGQANVEGWEPSSNNANTGIGGHGSCCSEMDIWEANSISEALTPHPCTTVGQEICEGDGCGGTYSDNDYGGTCDPDGCDWNPYRLGNTSFYGPGSSFTLDTTKKLTVVTQFETSGAINRYYVQNGVTFQQPNAELGSYSGNELNDDYCTAEEAEFGGSSFSDKGGLTQFKKATSGGMVLVMSLWDDYYANMLWLDSTYPTNETSSTPGAVRGSCSTSSGVPAQVESQSPNAKVTFSNIKFGPIGSTGNPSGGNPPGGNRGTTTTRRPATTTGSSPGPTQSHYGQCGGIGYSGPTVCASGTTCQVLNPYYSQCL | 467 |  | 431 | 
4 | R268R (protein, UniProt P62694 18-513, looked up) Exoglucanase 1: QSACTLQSETHPPLTWQKCSSGGTCTQQTGSVVIDANWRWTHATNSSTNCYDGNTWSSTLCPDNETCAKNCCLDGAAYASTYGVTTSGNSLSIGFVTQSAQKNVGARLYLMASDTTYQEFTLLGNEFSFDVDVSQLPCGLNGALYFVSMDADGGVSKYPTNTAGAKYGTGYCDSQCPRDLKFINGQANVEGWEPSSNNANTGIGGHGSCCSEMDIWEANSISEALTPHPCTTVGQEICEGDGCGGTYSDNRYGGTCDPDGCDWNPYRLGNTSFYGPGSSFTLDTTKKLTVVTQFETSGAINRYYVQNGVTFQQPNAELGSYSGNELNDDYCTAEEAEFGGSSFSDKGGLTQFKKATSGGMVLVMSLWDDYYANMLWLDSTYPTNETSSTPGAVRGSCSTSSGVPAQVESQSPNAKVTFSNIKFGPIGSTGNPSGGNPPGGNRGTTTTRRPATTTGSSPGPTQSHYGQCGGIGYSGPTVCASGTTCQVLNPYYSQCL | 52 |  | 46 | 
5 | R268I (protein, UniProt P62694 18-513, looked up, variant R268I) Exoglucanase 1: QSACTLQSETHPPLTWQKCSSGGTCTQQTGSVVIDANWRWTHATNSSTNCYDGNTWSSTLCPDNETCAKNCCLDGAAYASTYGVTTSGNSLSIGFVTQSAQKNVGARLYLMASDTTYQEFTLLGNEFSFDVDVSQLPCGLNGALYFVSMDADGGVSKYPTNTAGAKYGTGYCDSQCPRDLKFINGQANVEGWEPSSNNANTGIGGHGSCCSEMDIWEANSISEALTPHPCTTVGQEICEGDGCGGTYSDNIYGGTCDPDGCDWNPYRLGNTSFYGPGSSFTLDTTKKLTVVTQFETSGAINRYYVQNGVTFQQPNAELGSYSGNELNDDYCTAEEAEFGGSSFSDKGGLTQFKKATSGGMVLVMSLWDDYYANMLWLDSTYPTNETSSTPGAVRGSCSTSSGVPAQVESQSPNAKVTFSNIKFGPIGSTGNPSGGNPPGGNRGTTTTRRPATTTGSSPGPTQSHYGQCGGIGYSGPTVCASGTTCQVLNPYYSQCL | 484 |  | 320 | 
6 | 268A/411S: CBH I variant with site 268 mutated to alanine and site 411 to serine (protein, UniProt P62694 18-513, looked up, variant R268A R411S) Exoglucanase 1: QSACTLQSETHPPLTWQKCSSGGTCTQQTGSVVIDANWRWTHATNSSTNCYDGNTWSSTLCPDNETCAKNCCLDGAAYASTYGVTTSGNSLSIGFVTQSAQKNVGARLYLMASDTTYQEFTLLGNEFSFDVDVSQLPCGLNGALYFVSMDADGGVSKYPTNTAGAKYGTGYCDSQCPRDLKFINGQANVEGWEPSSNNANTGIGGHGSCCSEMDIWEANSISEALTPHPCTTVGQEICEGDGCGGTYSDNAYGGTCDPDGCDWNPYRLGNTSFYGPGSSFTLDTTKKLTVVTQFETSGAINRYYVQNGVTFQQPNAELGSYSGNELNDDYCTAEEAEFGGSSFSDKGGLTQFKKATSGGMVLVMSLWDDYYANMLWLDSTYPTNETSSTPGAVSGSCSTSSGVPAQVESQSPNAKVTFSNIKFGPIGSTGNPSGGNPPGGNRGTTTTRRPATTTGSSPGPTQSHYGQCGGIGYSGPTVCASGTTCQVLNPYYSQCL |  |  |  | 6800
7 | 411 S: CBH I variant with site 411 mutated to serine (protein, UniProt P62694 18-513, looked up, variant R411S) Exoglucanase 1: QSACTLQSETHPPLTWQKCSSGGTCTQQTGSVVIDANWRWTHATNSSTNCYDGNTWSSTLCPDNETCAKNCCLDGAAYASTYGVTTSGNSLSIGFVTQSAQKNVGARLYLMASDTTYQEFTLLGNEFSFDVDVSQLPCGLNGALYFVSMDADGGVSKYPTNTAGAKYGTGYCDSQCPRDLKFINGQANVEGWEPSSNNANTGIGGHGSCCSEMDIWEANSISEALTPHPCTTVGQEICEGDGCGGTYSDNRYGGTCDPDGCDWNPYRLGNTSFYGPGSSFTLDTTKKLTVVTQFETSGAINRYYVQNGVTFQQPNAELGSYSGNELNDDYCTAEEAEFGGSSFSDKGGLTQFKKATSGGMVLVMSLWDDYYANMLWLDSTYPTNETSSTPGAVSGSCSTSSGVPAQVESQSPNAKVTFSNIKFGPIGSTGNPSGGNPPGGNRGTTTTRRPATTTGSSPGPTQSHYGQCGGIGYSGPTVCASGTTCQVLNPYYSQCL | 895 |  | 762 | 890
8 | 268S: CBH I variant with site 268 mutated to serine (protein, UniProt P62694 18-513, looked up, variant R268S) Exoglucanase 1: QSACTLQSETHPPLTWQKCSSGGTCTQQTGSVVIDANWRWTHATNSSTNCYDGNTWSSTLCPDNETCAKNCCLDGAAYASTYGVTTSGNSLSIGFVTQSAQKNVGARLYLMASDTTYQEFTLLGNEFSFDVDVSQLPCGLNGALYFVSMDADGGVSKYPTNTAGAKYGTGYCDSQCPRDLKFINGQANVEGWEPSSNNANTGIGGHGSCCSEMDIWEANSISEALTPHPCTTVGQEICEGDGCGGTYSDNSYGGTCDPDGCDWNPYRLGNTSFYGPGSSFTLDTTKKLTVVTQFETSGAINRYYVQNGVTFQQPNAELGSYSGNELNDDYCTAEEAEFGGSSFSDKGGLTQFKKATSGGMVLVMSLWDDYYANMLWLDSTYPTNETSSTPGAVRGSCSTSSGVPAQVESQSPNAKVTFSNIKFGPIGSTGNPSGGNPPGGNRGTTTTRRPATTTGSSPGPTQSHYGQCGGIGYSGPTVCASGTTCQVLNPYYSQCL | 452 |  | 406 | 450
